Test results reported in patent publication US20200140542A1 (OSAKA UNIVERSITY, published 2020).
One block for each binder: values may come before it.

Experiments:
mouse CL-2 [1] = target: T1, mouse CL-2 (mouse, UniProt O88552 1-230); assay: flow cytometry, culture supernatant on transfected cells
T1 construct: whole, on cells; also called mCL-2; mCL-2/L cells
T1 sequence (looked up): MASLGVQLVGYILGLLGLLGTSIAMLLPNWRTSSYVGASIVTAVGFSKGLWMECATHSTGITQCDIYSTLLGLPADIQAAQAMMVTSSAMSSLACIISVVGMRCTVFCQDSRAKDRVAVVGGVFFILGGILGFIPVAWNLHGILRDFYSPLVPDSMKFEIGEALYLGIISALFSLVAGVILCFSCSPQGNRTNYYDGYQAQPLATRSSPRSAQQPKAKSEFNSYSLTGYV
Protocol: (§1) After the hybridoma culture supernatants prepared in Example 1 (1A2, 2G8, and 3B2) were individually added and stirred, the resulting mixtures were allowed to stand on ice for 1 hour. After washing with 0.2% BSA-PBS once, goat anti-rat IgG (H +L)-FITC antibody (KPL) diluted with 1% BSA-PBS was added and stirred, and the resulting mixtures were allowed to stand on ice for 30 minutes. After washing with 0.2% BSA-PBS once, PI (Mitenyi Biotec) diluted with 1% BSA-PBS to a final concentration of 5 μg/mL was added, and FCM analysis was performed.
Further, all the three hybridoma culture supernatants 1A2, 2G8, and 3B2 prepared in Example 1 were also confirmed to have affinity to mCL-2/L cells.

human CL-9 [2] = target: T2, human CL-9 (human, UniProt O95484 1-217); assay: flow cytometry, hybridoma culture supernatant on transfected cells
T2 construct: whole, on cells; also called hCL-9; hCL-9/HT1080 cells
T2 sequence (looked up): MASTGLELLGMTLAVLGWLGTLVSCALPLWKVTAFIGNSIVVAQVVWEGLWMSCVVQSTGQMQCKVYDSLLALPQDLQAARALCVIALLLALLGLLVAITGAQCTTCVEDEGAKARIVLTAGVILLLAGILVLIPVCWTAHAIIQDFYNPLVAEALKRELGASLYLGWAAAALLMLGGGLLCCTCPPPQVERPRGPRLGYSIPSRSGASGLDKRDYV
Protocol: as §1

human CL-3 [3] = target: T3, human CL-3 (human, UniProt O15551 1-220); assay: as above
T3 construct: whole, on cells; also called hCL-3; hCL-3/HT1080 cells
T3 sequence (looked up): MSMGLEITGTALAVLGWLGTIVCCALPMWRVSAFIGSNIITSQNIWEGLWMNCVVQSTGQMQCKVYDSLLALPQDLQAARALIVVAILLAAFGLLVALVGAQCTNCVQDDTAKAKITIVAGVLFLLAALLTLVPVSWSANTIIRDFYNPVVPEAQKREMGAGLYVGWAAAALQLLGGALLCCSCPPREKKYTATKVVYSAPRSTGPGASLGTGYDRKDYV
Protocol: as §1

human CL-4 [4] = target: T4, human CL-4 (human, UniProt O14493 1-209); assay: as above
T4 construct: whole, on cells; also called hCL-4; hCL-4/HT1080 cells
T4 sequence (looked up): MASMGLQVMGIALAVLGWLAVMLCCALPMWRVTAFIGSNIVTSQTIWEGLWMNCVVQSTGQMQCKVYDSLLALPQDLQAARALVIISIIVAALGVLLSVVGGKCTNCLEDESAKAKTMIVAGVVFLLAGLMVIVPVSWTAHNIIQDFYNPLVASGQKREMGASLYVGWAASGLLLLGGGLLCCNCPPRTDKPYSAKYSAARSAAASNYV
Protocol: as §1

human CL-7 [5] = target: T5, human CL-7 (human, UniProt O95471 1-211); assay: as above
T5 construct: whole, on cells; also called hCL-7; hCL-7/HT1080 cells
T5 sequence (looked up): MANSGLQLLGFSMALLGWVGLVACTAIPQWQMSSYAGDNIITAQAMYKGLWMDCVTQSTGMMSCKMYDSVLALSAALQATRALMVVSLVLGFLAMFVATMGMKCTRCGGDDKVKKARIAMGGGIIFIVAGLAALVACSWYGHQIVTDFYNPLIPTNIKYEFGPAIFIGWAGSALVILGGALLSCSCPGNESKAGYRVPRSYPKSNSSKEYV
Protocol: as §1

human CL-1 [6] = target: T6, human CL-1 (human, UniProt O95832 1-211); assay: as above
T6 construct: whole, on cells; also called hCL-1; hCL-1/HT1080 cells
T6 sequence (looked up): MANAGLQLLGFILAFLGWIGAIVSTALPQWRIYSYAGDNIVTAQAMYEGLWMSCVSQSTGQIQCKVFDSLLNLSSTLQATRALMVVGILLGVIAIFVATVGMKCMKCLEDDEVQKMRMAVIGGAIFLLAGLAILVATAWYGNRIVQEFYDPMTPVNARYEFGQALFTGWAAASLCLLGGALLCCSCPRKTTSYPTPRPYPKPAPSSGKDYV
Protocol: as §1

human CL-6 [7] = target: T7, human CL-6 (human, UniProt P56747 1-220); assay: as above
T7 construct: whole, on cells; also called hCL-6; hCL-6/HT1080 cells
T7 sequence (looked up): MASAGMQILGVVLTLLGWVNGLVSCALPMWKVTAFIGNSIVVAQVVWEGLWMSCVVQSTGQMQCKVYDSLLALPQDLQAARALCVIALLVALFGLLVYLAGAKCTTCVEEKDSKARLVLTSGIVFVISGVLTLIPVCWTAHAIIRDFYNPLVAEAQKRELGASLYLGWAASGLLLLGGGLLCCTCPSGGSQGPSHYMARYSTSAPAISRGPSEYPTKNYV
Protocol: as §1

mouse CL-2 [8] = target: T1, mouse CL-2; assay: flow cytometry on transfected cells, antibody at 5 µg/mL
Excerpt: (§2) hCL-1/HT1080 cells, hCL-2/HT1080 cells, hCL-3/HT1080 cells, hCL-4/HT1080 cells, human CL-5 expressing HT1080 cells (hCL-5/HT1080 cells), hCL-6/HT1080 cells, hCL-7/HT1080 cells, and hCL-9/HT1080 cells, mouse CLDN1 expressing L cells (mCL-1/L cells), mCL-2/L cells, and mouse CL4 expressing L cells (mCL-4/L cells) were individually recovered by trypsin treatment. […] Subsequently, after washing with 0.2% BSA-PBS once, goat anti-human IgG (H+L)-FITC antibody (Jackson ImmunoResearch) diluted with 1% BSA-PBS was added and stirred, and the resulting mixtures were allowed to stand on ice for 30 minutes. After washing with 0.2% BSA-PBS once, PI diluted with 1% BSA-PBS to a final concentration of 5 μg/mL was added, and FCM analysis was performed.

human CL-9 [9] = target: T2, human CL-9; assay: flow cytometry on transfected cells
Excerpt: as §2

human CL-3 [10] = target: T3, human CL-3; assay: flow cytometry on transfected cells
Excerpt: as §2

human CL-4 [11] = target: T4, human CL-4; assay: flow cytometry on transfected cells
Excerpt: as §2

human CL-7 [12] = target: T5, human CL-7; assay: flow cytometry on transfected cells
Excerpt: as §2

human CL-1 [13] = target: T6, human CL-1; assay: flow cytometry on transfected cells
Excerpt: as §2

human CL-6 [14] = target: T7, human CL-6; assay: flow cytometry on transfected cells
Excerpt: as §2

mouse CL4 = target: T8, mouse CL4 (mouse, UniProt O35054 1-210); assay: flow cytometry on transfected cells
T8 construct: whole, on cells; also called mCL-4; mCL-4/L cells
T8 sequence (looked up): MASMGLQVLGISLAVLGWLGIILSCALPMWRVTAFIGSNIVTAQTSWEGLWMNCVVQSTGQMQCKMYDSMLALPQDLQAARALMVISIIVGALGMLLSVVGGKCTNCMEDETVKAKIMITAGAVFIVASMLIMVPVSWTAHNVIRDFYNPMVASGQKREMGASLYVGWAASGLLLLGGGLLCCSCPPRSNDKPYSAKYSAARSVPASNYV
Excerpt: as §2

mouse CLDN1 = target: T9, mouse CLDN1 (mouse, UniProt O88551 1-211); assay: flow cytometry on transfected cells
T9 construct: whole, on cells; also called mCL-1; mCL-1/L cells
T9 sequence (looked up): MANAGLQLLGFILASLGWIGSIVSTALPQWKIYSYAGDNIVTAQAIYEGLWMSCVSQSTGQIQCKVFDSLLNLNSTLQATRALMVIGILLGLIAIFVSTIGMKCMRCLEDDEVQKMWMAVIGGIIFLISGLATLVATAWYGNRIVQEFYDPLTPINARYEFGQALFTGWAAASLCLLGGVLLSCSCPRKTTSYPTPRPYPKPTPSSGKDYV
Excerpt: as §2

human CL-5 = target: T10, human CL-5 (human, UniProt O00501 1-218); assay: flow cytometry on transfected cells
T10 construct: whole, on cells; also called hCL-5; hCL-5/HT1080 cells
T10 sequence (looked up): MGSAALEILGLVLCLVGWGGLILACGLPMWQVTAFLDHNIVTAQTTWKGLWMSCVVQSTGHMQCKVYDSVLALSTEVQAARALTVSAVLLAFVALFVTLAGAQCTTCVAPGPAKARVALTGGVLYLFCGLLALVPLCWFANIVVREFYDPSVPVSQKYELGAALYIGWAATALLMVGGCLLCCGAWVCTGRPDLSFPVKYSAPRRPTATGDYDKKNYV
Excerpt: as §2

binding result (mouse CL-2 [1]): binds
binding result (human CL-9 [2]): no binding
binding result (human CL-3 [3]): no binding
binding result (human CL-4 [4]): no binding
binding result (human CL-7 [5]): no binding
binding result (human CL-1 [6]): no binding
binding result (human CL-6 [7]): no binding
B1: anti-CL-2 antibody 2G8 (antibody, IgG2b, V domains shown)
VH: QVNLLQSGAALVKPGASVRLSCRVSGYSFTVSFLHWVKQSHGKSLEWIGYINPYSGSPNYNEKFKSKTTLTVDKSTSTAYMELSGLTSEDSASYYCTNWDYWGQGVMVTVSS
VL: DVVMTQTPVSLSLAIGQPASISCKSSQSLLGSSGKTFLNWILQRPGQSPKRLIYQVSTLYSEVPDRFSGSGSETEFTLKITRVEAEDLGVYYCWQGIHFPHTFGAGTKLELKR
notes: also called clone 2G8; hybridoma culture supernatant 2G8

binding result (mouse CL-2 [8]): binds
binding result (human CL-9 [9]): no binding (tested: 5 µg/mL)
binding result (human CL-3 [10]): no binding (tested: 5 µg/mL)
binding result (human CL-4 [11]): no binding (tested: 5 µg/mL)
binding result (human CL-7 [12]): no binding (tested: 5 µg/mL)
binding result (human CL-1 [13]): no binding (tested: 5 µg/mL)
binding result (human CL-6 [14]): no binding (tested: 5 µg/mL)
binding result (mouse CL4): no binding (tested: 5 µg/mL)
binding result (mouse CLDN1): no binding (tested: 5 µg/mL)
binding result (human CL-5): no binding (tested: 5 µg/mL)
B2: anti-CL-2 human-rat chimeric antibody 2G8 produced in Example 4 (antibody, V domains shown)
VH: B1 VH
VL: B1 VL
notes: Variable regions of rat 2G8 cloned into vectors with human constant regions (VH: pFUSE-CHIg-hG1, human IgG1); also called anti-CL-2 chimeric antibody 2G8; anti-CL-2 chimeric antibody 2G8a
